This note sets out measurements from patent US20220204643A1 (published 2022).

Read-outs that look alike come from different tables or passages of the source.

One test concerns the target T1, DEAD-box helicase 53 (human, UniProt Q86TM3 1-631).
T1 construct: on protein array; also called DDX53
Nature of the test: protein array.

The target of test [1] is T2, PNMA family member 5, transcript variant 2 (human, UniProt Q96PV4 1-448).
T2 construct: on protein array; also called PNMA5
Nature of the test: protein array.
T2 sequence (Q96PV4 other isoform, or with tags, fused parts or gaps mutant limits assumed): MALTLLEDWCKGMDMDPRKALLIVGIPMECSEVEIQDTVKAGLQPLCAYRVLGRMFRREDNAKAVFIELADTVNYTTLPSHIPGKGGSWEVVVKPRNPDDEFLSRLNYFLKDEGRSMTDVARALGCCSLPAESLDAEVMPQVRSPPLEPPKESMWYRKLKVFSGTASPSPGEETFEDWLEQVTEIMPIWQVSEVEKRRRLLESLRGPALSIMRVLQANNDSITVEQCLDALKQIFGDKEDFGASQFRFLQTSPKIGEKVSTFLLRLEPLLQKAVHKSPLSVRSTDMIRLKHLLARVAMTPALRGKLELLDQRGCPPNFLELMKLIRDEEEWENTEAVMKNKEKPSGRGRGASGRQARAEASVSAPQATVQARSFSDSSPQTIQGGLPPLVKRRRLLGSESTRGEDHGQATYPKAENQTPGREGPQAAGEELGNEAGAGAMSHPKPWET

In test [2] the target is T3, PNMA family member 5, transcript variant 2 (human, UniProt Q96PV4 1-448).
T3 construct: HuProt array protein, full-length recombinant from yeast; also called PNMA5
T3 sequence (Q96PV4 other isoform, or with tags, fused parts or gaps mutant limits assumed): as above

The target of test [3] is T4, kelch like ECH associated protein 1, transcript variant 1 (human, UniProt Q14145 1-624).
T4 construct: HuProt array protein, full-length recombinant from yeast; also called KEAP1
T4 sequence (Q14145 whole entry, change not shown): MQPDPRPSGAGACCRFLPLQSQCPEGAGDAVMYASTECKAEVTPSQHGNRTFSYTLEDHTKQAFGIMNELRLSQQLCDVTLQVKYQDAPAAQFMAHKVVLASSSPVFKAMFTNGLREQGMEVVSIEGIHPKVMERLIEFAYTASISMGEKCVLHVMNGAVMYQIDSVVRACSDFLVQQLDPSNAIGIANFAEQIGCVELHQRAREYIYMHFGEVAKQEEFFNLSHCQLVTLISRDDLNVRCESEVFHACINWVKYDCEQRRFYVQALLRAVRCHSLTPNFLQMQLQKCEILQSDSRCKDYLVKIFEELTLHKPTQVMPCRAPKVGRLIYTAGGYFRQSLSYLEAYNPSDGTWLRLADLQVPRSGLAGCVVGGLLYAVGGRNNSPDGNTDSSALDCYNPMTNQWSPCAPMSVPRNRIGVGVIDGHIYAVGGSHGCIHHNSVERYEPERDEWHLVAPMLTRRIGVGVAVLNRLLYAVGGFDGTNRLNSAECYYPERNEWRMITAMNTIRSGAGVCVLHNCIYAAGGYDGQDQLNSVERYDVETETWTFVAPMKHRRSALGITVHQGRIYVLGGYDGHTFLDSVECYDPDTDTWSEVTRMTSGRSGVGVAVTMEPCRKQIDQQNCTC

Test [4] concerns the target T5, Jupiter microtubule associated homolog 2 (human, UniProt Q9H910 1-190).
T5 construct: on protein array; also called HN1L
T5 sequence: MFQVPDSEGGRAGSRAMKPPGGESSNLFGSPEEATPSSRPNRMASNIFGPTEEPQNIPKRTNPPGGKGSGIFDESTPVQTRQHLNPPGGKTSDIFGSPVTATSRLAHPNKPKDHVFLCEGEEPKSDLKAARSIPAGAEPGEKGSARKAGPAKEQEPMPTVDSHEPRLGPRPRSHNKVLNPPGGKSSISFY
Nature of the test: protein array.

The target of test [5] is T6, endosome associated trafficking regulator 1, transcript variant 2 (human, UniProt Q96C92 59-435).
T6 construct: on protein array; also called SDCCAG3
T6 chain: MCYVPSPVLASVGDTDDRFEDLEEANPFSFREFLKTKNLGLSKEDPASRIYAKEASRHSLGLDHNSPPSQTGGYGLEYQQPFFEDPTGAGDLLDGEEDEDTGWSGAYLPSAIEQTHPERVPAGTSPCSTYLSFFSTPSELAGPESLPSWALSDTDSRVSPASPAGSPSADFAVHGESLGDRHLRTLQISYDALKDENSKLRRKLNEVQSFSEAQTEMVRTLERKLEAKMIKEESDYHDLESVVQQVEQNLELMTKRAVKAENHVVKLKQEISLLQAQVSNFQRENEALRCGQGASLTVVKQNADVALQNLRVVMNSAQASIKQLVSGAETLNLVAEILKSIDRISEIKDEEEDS
Description: protein array.

In test [6] the target is T7, endosome associated trafficking regulator 1, transcript variant 2 (human, UniProt Q96C92 59-435).
T7 construct: HuProt array protein, full-length recombinant from yeast; also called SDCCAG3
T7 chain: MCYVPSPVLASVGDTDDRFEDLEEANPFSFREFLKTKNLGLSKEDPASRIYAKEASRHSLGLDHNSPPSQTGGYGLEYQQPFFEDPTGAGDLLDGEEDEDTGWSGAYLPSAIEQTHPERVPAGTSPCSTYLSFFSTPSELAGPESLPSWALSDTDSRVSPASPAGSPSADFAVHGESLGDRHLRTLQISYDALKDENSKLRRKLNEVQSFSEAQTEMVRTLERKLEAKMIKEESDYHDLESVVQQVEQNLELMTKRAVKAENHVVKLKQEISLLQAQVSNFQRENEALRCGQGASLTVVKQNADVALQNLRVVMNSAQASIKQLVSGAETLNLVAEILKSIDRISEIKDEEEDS

T1 sequence (Q86TM3 other isoform, or with tags, fused parts or gaps limits assumed): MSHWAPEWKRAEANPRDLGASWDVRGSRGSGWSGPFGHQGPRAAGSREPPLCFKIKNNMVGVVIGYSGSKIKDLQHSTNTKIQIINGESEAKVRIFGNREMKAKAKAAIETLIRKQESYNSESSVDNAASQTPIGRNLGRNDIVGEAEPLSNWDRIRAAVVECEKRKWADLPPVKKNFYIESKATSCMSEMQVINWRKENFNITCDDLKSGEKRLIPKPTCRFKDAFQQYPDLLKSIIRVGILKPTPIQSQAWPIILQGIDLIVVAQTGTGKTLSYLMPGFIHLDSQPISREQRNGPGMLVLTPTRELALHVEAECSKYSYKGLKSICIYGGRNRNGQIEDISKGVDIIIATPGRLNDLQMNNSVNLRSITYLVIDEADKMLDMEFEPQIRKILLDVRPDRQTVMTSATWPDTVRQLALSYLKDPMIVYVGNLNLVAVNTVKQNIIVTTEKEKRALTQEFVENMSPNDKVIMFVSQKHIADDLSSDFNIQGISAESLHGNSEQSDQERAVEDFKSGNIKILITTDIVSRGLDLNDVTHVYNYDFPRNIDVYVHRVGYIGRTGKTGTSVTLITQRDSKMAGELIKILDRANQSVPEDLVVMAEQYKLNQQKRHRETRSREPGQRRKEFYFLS

B1: TSAR1004 (antibody, V domains shown)
VH: QVQLQESGPGLVKPSETLSLTCSVSGDSFSDYYWSWTRQSPGKGLEWLGYMFYGGSTNYNPSLKSRLTMSVDTSKKHVYLKLSSVTAADTAVYYCAASGYGDHVAYWGQGTLVTVSS
VL: DIVMTQSPDSLAVSLGERATLNCKSSQSVLSSYNNKDYLAWFQQKPGQPPQLLFYWASTRKTGVPDRFSGSGSGTDFTLTISSLQTEDVAVYYCQQYYSTPYTFGQGTKLEIK
notes: VH/VL tied via antigen in summary, not by name in this stretch
As for B1, in the test with DEAD-box helicase 53, the binding result is given as “binds”.

B2: TBRE1011 (antibody, V domains shown)
VH: PVLLQESGPGLVKPSETLSLTCTVSGDSMSFYYWTWIRQPPGKGLEWIGYIYYSGNRNYNPSLNSRVTISVDTSKNEVSLKLTSVTAADTAAYYCARGRGEMDVWGQGTTVTVSS
VL: QSVLTQPPSASGTPGQGVTISCSGTSANIGKNYVSWYQHLPGTAPRLLIYRIDQRPSGVPDRFSGSKSGTSASLAISGLRPEDEADYYCAAWDDSLSGPVFGGGTKLTVLG
notes: VH/VL only
For the molecule B2, in test [1], the binding result was “binds”.

B3: TBRE1011 (antibody, V domains shown)
VH: PVLLQESGPGLVKPSETLSLTCTVSGDSMSFYYWTWIRQPPGKGLEWIGYIYYSGNRNYNPSLNSRVTISVDTSKNEVSLKLTSVTAADTAAYYCARGRGEMDVWGQGTTVTVSS
VL: QSVLTQPPSASGTPGQGVTISCSGTSANIGKNYVSWYQHLPGTAPRLLIYRIDQRPSGVPDRFSGSKSGTSASLAISGLRPEDEADYYCAAWDDSLSGPVFGGGTKLTVLG
notes: detected with anti-human IgG Fc
Regarding B3, the binding result in test [2] is reported as “binds”.

B4: THNS1008 (antibody, V domains shown)
VH: QVQLQESGPGLVKPSQTLSLTCAVSGGSISSGGYPWSWIRQPPGKGLEWIGYISYSGSTDYNPSLKSRVTISLDTSSNQFSLNLSSLTAADTAVYYCARGAAFYYGMDVWGQGTTVTVSS
VL: DIQMTQSPSSLSASVGDRVTITCRASQSISTYLNWYQQKPGKAPKLLIYVASSLQSGVPSRFSGSGSGTDFTLTISGLQPEDFATYYCQQSYSTPYTFGQGTKLEIKR
notes: detected with anti-human IgG Fc; also called THINS1008
For the molecule B4, the binding result in test [3] is “binds”.

B5: TBRE1052 (antibody, V domains shown)
VH: PVQLIQSGAEVRKPGASVKVSCKVSGYTLSELSLHWVRQAPGKGLEWMGTFDPEDGETVYAQKFQGRVTVTEDTSTDTAYIDLSSLKSEDTAVYYCATDGPLHTSGLDYWGQGTLVTVSS
VL: EIVLTQSPATLSLSPGERATLSCRASQSISSNLAWYQQKPGQAPRLLIYDASNRATGIPARFSGSGSGTDFTLTISSLEPEDFAVYYCQQHSNWPELTFGGGTKVEIKR
notes: as for B3
On to B5, for which, in test [3], the binding result was “binds”.

B6: TTES1011 (antibody, V domains shown)
VH: PVTLRESGPALVKPTQTLTLTCTFSGFSLSTSGMCVSWIRQPPGKALEWLARIDWDDDKYYSTSLKTRLTISKDTSKNQVVLTMTNMDPVDTATYYCARMQIVATTQTYYYYYGMDVWGQGTTVTVSS
VL: PAVLTQPPSVSGAPGQRVTISCTGSSSNIGAGYDVHWYQQLPGTAPKLLIYGNSNRPSGVPDRFSGSKSGTSASLAITGLQAEDEADYYCQSYDSSLSGSGVFGGGTKLTVLG
notes: as for B1
For B6, in test [4], the binding result is on record as “binds”.

B7: TOVA1008 (antibody, V domains shown)
VH: ELQLVESGGGLVQPGGSLRLSCAASGFTFSSYWMSWVRQAPGKGLEWVANINQDGGEKYYVDSVKGRFTISRDNAKNSLYLQMNSLRAEDTAVYYCAHYYYDSSGYYQNAEYFQYWGQGTLVTVSS
VL: DIQMTQSPPSLSASVGDRVTITCQASQDISNYLNWYQQKPGKTPKLLIYAASTLETGVPSRFSGSGSGTDFTFTINSLQPEDIATYYCQQYDSLPLTFGGGTKVEIKR
notes: as for B1
Take B7: the binding result in test [4] is “binds”.

B8: TOVA1001 (antibody, V domains shown)
VH: HVQLVQSGSELKKPGASVKLSCKASGYTFTNYAMNWVRQAPGQGLEWMGWINTNTGNPTYAQGFTGRFVFSLDTSVSTAYLQISSLKAEDTALYYCARDRPGDYWGQGTLVTVSS
VL: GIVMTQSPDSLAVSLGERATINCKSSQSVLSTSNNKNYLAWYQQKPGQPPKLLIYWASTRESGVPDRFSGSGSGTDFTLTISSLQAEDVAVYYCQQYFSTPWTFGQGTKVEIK
notes: as for B1
Turning to B8, the binding result with DEAD-box helicase 53 is reported as “binds”.

B9: THNS1009 (antibody, V domains shown)
VH: QVQLQESGPGLVKPSETLSLTCTVSGGSISIYYWSWIRQPPGKGLEWIGYIYYSGSTNYNPSLKSRVTISVDTSKNQFSLKLRSVTAADTAVYYCARDTYGDPRGDYFDYWGQGTLVTVSS
VL: DIQMTQSPSTLSASVGDRVTITCRASQRISNWLAWYQQTPGKAPKLLIYKASSLESGVPSRFSGSGSGTEFTLTISSLQPDDFATYYCQQYSSSSPRTFGQGTKVEIKR
notes: as for B3
Regarding B9, in test [2], the binding result was “binds”.

B10: THNS1009 (antibody, V domains shown)
VH: QVQLQESGPGLVKPSETLSLTCTVSGGSISIYYWSWIRQPPGKGLEWIGYIYYSGSTNYNPSLKSRVTISVDTSKNQFSLKLRSVTAADTAVYYCARDTYGDPRGDYFDYWGQGTLVTVSS
VL: DIQMTQSPSTLSASVGDRVTITCRASQRISNWLAWYQQTPGKAPKLLIYKASSLESGVPSRFSGSGSGTEFTLTISSLQPDDFATYYCQQYSSSSPRTFGQGTKVEIKR
notes: VH/VL only
Consider B10, for which the binding result in test [1] was “binds”.

B11: TMES1001 (antibody, V domains shown)
VH: QVQLVQSGAEVKKPGASVKVSCKASGYTFTSYYMYWVRQAPGQGLEWMGIINPGGGSTSYAQKFQGRVTMTRDTSTSTVYMELSSLRSEDTAVYYCARVFRYGMDVWGQGTTVTVSS
VL: EIVMTQSPATLSVSPGERATLSCRASQSVSSNLAWYQQKPGQAPRLLIYGASTRATGLPARFSGSGSGTEFTLTISSLQSEDFAVYYCQSRGTFGGGTKVEIK
notes: as for B1
As for B11, the binding result in test [5] was “binds”.

B12: TMES1001 (antibody, V domains shown)
VH: QVQLVQSGAEVKKPGASVKVSCKASGYTFTSYYMYWVRQAPGQGLEWMGIINPGGGSTSYAQKFQGRVTMTRDTSTSTVYMELSSLRSEDTAVYYCARVFRYGMDVWGQGTTVTVSS
VL: EIVMTQSPATLSVSPGERATLSCRASQSVSSNLAWYQQKPGQAPRLLIYGASTRATGLPARFSGSGSGTEFTLTISSLQSEDFAVYYCQSRGTFGGGTKVEIK
notes: as for B3
B12: in test [6], the binding result is given as “binds”.

B13: TMEL1025 (antibody, V domains shown)
VH: EVQLMESGGGLVQPGGSLRLSCAASGLTFSIYSMNWVRQAPGKGLEWVSYISRGSSVIYHADSVKGRFTISRDDGKNLLYLQMNSLRDDDTAMYYCSSGGSTSMVGRYWGQGSLVTVSS
VL: DVVMTQSPLYLPVTLGQPASISCRASQSLVYSDGNTYLNWVHQRPGQSPRRLIYMVSQRGSGVPDRFSGSGSDTDFTLKISRVEAEDVGVYYCMQGTHWSAFGQGTKLEIKR
notes: as for B1
As for B13, the binding result in test [5] is “binds”.

B14: TMEL1025 (antibody, V domains shown)
VH: EVQLMESGGGLVQPGGSLRLSCAASGLTFSIYSMNWVRQAPGKGLEWVSYISRGSSVIYHADSVKGRFTISRDDGKNLLYLQMNSLRDDDTAMYYCSSGGSTSMVGRYWGQGSLVTVSS
VL: DVVMTQSPLYLPVTLGQPASISCRASQSLVYSDGNTYLNWVHQRPGQSPRRLIYMVSQRGSGVPDRFSGSGSDTDFTLKISRVEAEDVGVYYCMQGTHWSAFGQGTKLEIKR
notes: as for B3
As to B14, the binding result in test [6] is “binds”.

B15: TCOL1007 (antibody, V domains shown)
VH: PVQLVESGGGVVQPGRSLRLSCAASGFTFSNYGMHWVRQAPGKGLEWVAVISDDGNDKDNADSVKGRFTISRDNSKNTLYLRMNSLRREDTAVYYCARDGFDYWGQGTLVTVSS
VL: DIVMTQTPLSMPVTPGEPASISCRSSQSLLDSDDGKTYLDWYLQKPGQSPQLLIYTVSYRASGVPDRFSGSGSGTDFTLKISRVEAEDVGVYYCMQRIEFPFTFGPGTKVDIKR
notes: as for B3
With B15, the binding result in test [3] is “binds”.
